Experimental findings from US20220017615A1 (SHANGHAI PHARMAEXPLORER, published 2022) are described below.

Residue numbers refer to the chain shown, from its start.

Assay [1] addresses T1, His-tagged CD47 recombinant protein, CD47-His (human, UniProt Q08722 19-141, limits assumed).
T1 construct: it is not restated for CD47-His; also called human CD47-His protein; antigen CD47-His; not shown: His tag
Put plainly: BLI (Octet Red 96), antibody on AHC sensor, CD47-His 100 nM.

Assay [2] addresses T2, human CD47, full length, on transfected cells (human, UniProt Q08722 19-323).
T2 construct: whole, on cells; also called CHOK1-hCD47
The assay can be described thus: FACS CHOK1-hCD47; Ab 8 nM.
Experimental: (§1) The CHOK1-hCD47 stable cell lines and CHOK1-cCD47 stable cell lines were expanded to 90% confluence in a T-75 cell culture flask, the medium was exhausted, washed twice with HBSS buffer (Hanks balanced salt solution) (purchased from Invitrogen), and then treated and collected with enzyme-free cell dissociation solution (Versene solution: purchased from Life technology). The cells were washed twice with HBSS buffer. After counted, the cells were diluted with HBSS to 2×10⁶ cells per ml, added with 1% goat serum blocking solution, wherein the percentage was the mass percantage, incubated on ice for 30 minutes, and then washed twice with HBSS by centrifugation. […] The plate was washed 3 times with FACS buffer by centrifugation, added with 100 μl fixative solution [4% (v/v) Paraformaldehyde] per well to suspend the cells. 10 minutes later, it was washed twice with FACS buffer by centrifugation. The cells were suspended with 100 microliters of FACS buffer, FACS (FACS Calibur, purchased from BD) was used for detection and the results were analyzed.

Assay [3] has as its target T3, cynomolgus CD47, on CHOK1-cCD47 stable cell line (cynomolgus).
T3 construct: whole, on cells; check before use; also called CHOK1/cynoCD47; monkey-derived CD47
Put plainly: FACS CHOK1-cCD47; Ab 8 nM.
Experimental: as §1

Assay [4] concerns the target T2, human CD47, full length, on transfected …. The assay can be described thus: FACS CHOK1-hCD47; Ab 40 nM.
The target of assay [5] is T3, cynomolgus CD47, on CHOK1-cCD47 stable …. Put plainly: FACS CHOK1-cCD47; Ab 40 nM.
Experimental: as §1
Assay [6] has as its target T2, human CD47, full length, on transfected …. The assay can be described thus: FACS CHOK1-hCD47; Ab 1.6 nM.
Assay [7] has the same target. The assay can be described thus: FACS CHOK1-hCD47; Ab 200 nM.
Experimental: as §1
Assay [8] has as its target T3, cynomolgus CD47, on CHOK1-cCD47 stable …. The assay can be described thus: FACS CHOK1-cCD47; Ab 1.6 nM.
Experimental: as §1
Assay [9] has the same target. Put plainly: FACS CHOK1-cCD47; Ab 200 nM.
Experimental: as §1
Assay [10] deals with T2, human CD47, full length, on transfected …. The assay can be described thus: FACS CHOK1-hCD47; Ab 0.32 nM.
For assay [11], the target named is T3, cynomolgus CD47, on CHOK1-cCD47 stable …. Put plainly: FACS CHOK1-cCD47; Ab 0.32 nM.
The target in assay [12] is T2, human CD47, full length, on transfected …. Put plainly: FACS CHOK1-hCD47; Ab 0.064 nM.
Experimental: as §1
For assay [13], the target named is T3, cynomolgus CD47, on CHOK1-cCD47 stable …. Put plainly: FACS CHOK1-cCD47; Ab 0.064 nM.
Experimental: as §1
In assay [14] the target is T2, human CD47, full length, on transfected …. The assay can be described thus: FACS CHOK1-hCD47; Ab 0.0128 nM.
The target of assay [15] is T3, cynomolgus CD47, on CHOK1-cCD47 stable …. Put plainly: FACS CHOK1-cCD47; Ab 0.0128 nM.
Experimental: as §1
Assay [16] concerns the target T1, His-tagged CD47 recombinant protein, …. The assay can be described thus: ELISA on coated CD47-His; Ab 0.004 nM.
Experimental: (§2) The plate was sealed with plastic film and incubated at 4° C. overnight. The plate was washed twice with plate washing solution [PBS+0.01% (v/v) Tween20] the next day, and blocking solution [PBS+0.01% (v/v) Tween20 +1% (w/w) BSA] was added to block it at room temperature for 2 hours. […] After incubation at 37° C. for 2 hours, the plates were washed three times with plate washing solution [PBS+0.01% (v/v) Tween 20]. HRP (horseradish peroxidase) labeled secondary antibody (purchased from Sigma) was added, incubated at 37° C. for 2 hours, and then washed three times with plate washing solution [PBS+0.01% (v/v) Tween 20]. 1000 of TMB substrate was added to each well. After incubated at room temperature for 30 minutes, the plate was added with 100 μl of stop solution (1.0N HCl) to each well.
Assay [17] has the same target. Put plainly: ELISA on coated CD47-His; Ab 0.021 nM.
Experimental: as §2
The target is the same in assay [18]. The assay can be described thus: ELISA on coated CD47-His; Ab 0.107 nM.
Experimental: as §2
For assay [19] the target is unchanged. Put plainly: ELISA on coated CD47-His; Ab 0.533 nM.
Experimental: as §2
Assay [20] has the same target. The assay can be described thus: ELISA on coated CD47-His; Ab 2.667 nM.
Experimental: as §2
For assay [21] the target is unchanged. The assay can be described thus: ELISA on coated CD47-His; Ab 13.333 nM.
Experimental: as §2
Assay [22] has the same target. Put plainly: ELISA on coated CD47-His; Ab 66.667 nM.
Experimental: as §2
Assay [23] concerns the target T2, human CD47, full length, on transfected …. The assay can be described thus: FACS CHOK1-hCD47; Ab 0 nM (background).
Experimental: as §1
In assay [24] the target is T3, cynomolgus CD47, on CHOK1-cCD47 stable …. The assay can be described thus: FACS CHOK1-cCD47; Ab 0 nM (background).
Experimental: as §1
For assay [25], the target named is T1, His-tagged CD47 recombinant protein, …. Put plainly: ELISA on coated CD47-His; Ab 0 nM (background).
Experimental: as §2
Assay [26] concerns the target T4, biotin-labeled CD47 extracellular domain protein (CD47-ECD) (UniProt Q08722 19-139, limits assumed, biotin-labeled (sites not given)).
T4 construct: extracellular domain; also called CD47 protein
The assay can be described thus: blocking ELISA, biotin-CD47-ECD on coated SIRPα-hFc; Ab 0 nM.

For assay [27], the target named is T4, biotin-labeled CD47 extracellular …. Put plainly: blocking ELISA, biotin-CD47-ECD on coated SIRPα-hFc; Ab 8 nM.
Assay [28] has the same target. Put plainly: blocking ELISA, biotin-CD47-ECD on coated SIRPα-hFc; Ab 40 nM.
Experimental: (§3) The plate was sealed with plastic film and incubated at 4° C. overnight. The plate was washed twice with plate washing solution [PBS+0.01% (v/v) Tween20] on the next day, and blocking solution [PBS+0.01% (v/v) Tween20 +1% (w/w) BSA] was added to block it at room temperature for 2 hours. […] After incubation at 37° C. for 2 hours, the plate was washed three times with the plate washing solution [PBS+0.01% (v/v) Tween 20]. HRP (horseradish peroxidase) labeled avidin diluent (purchased from Sigma) was added as 100 microliters per well, and after the plate was incubated for 2 hours at 37° C., it was washed 3 times with washing solution [PBS+0.01% (v/v) Tween 20]. 100 μl of TMB substrate was added to each well. After incubated at room temperature for 30 minutes, the plate was added with 100 μl of stop solution (1.0N HCl) to each well.
The target is the same in assay [29]. Put plainly: blocking ELISA, biotin-CD47-ECD on coated SIRPα-hFc; Ab 1.6 nM.
Experimental: as §3
Assay [30] shares this target. The assay can be described thus: blocking ELISA, biotin-CD47-ECD on coated SIRPα-hFc; Ab 200 nM.
Experimental: as §3
Assay [31] shares this target. Put plainly: blocking ELISA, biotin-CD47-ECD on coated SIRPα-hFc; Ab 0.32 nM.
The target is the same in assay [32]. The assay can be described thus: blocking ELISA, biotin-CD47-ECD on coated SIRPα-hFc; Ab 0.064 nM.
Experimental: as §3
The target is the same in assay [33]. Put plainly: blocking ELISA, biotin-CD47-ECD on coated SIRPα-hFc; Ab 0.0128 nM.
Experimental: as §3

B1: c25E3B5 (antibody, V domains shown)
VH: QVQLQQPGTALVRPGSSVKLSCKASGYTFTSYWMHWVRQRPIKGLEWIGNIDPSDSETHYNQRFKDKVTLTVDKSSNTAYMQLSSLTSEDSAVYYCARWKYHGIGAMDYWGQGTSVTVSS
VL: DVQITQSPSYLAASPGETVTISCRTNRNISKFLAWYQEKPGKTNKLLIYSGSTLHSGIPSRFSGSGSGTDFTLTISRLEPEDFAMYYCQQHNEYPWSFGGGTKLEIK
B1: in assay [1], the equilibrium dissociation constant (Kd) was 3.7 nM, the off-rate (koff) was determined as 0.000867 s⁻¹ and the on-rate constant (kon) turned out to be 234000 M⁻¹ s⁻¹.

B2: c20H4G5 (antibody, V domains shown)
VH: QVQLQQPGAELVRPGSSVRLSCVTSGYTFTSHWMHWVKQGPIKGLEWIGNIDPSDSETHYNQKFKDKATLTVDKSSSTAYMQLSRLTSDDSAVYYCARWRHLGIGAMDYWGQGTSVIVSS
VL: B1 VL with V19I, S22N, T25A, N26S, R27K, E38A, T43S, K45N, H55Q, S97T
Turning to B2, in [1], the Kd stood at 0.695 nM, the koff was 0.000202 s⁻¹ and the kon is 290000 M⁻¹ s⁻¹.

B3: c132D1E5 (antibody, V domains shown)
VH: QVQLQQPGAELVRPGSSVKLSCKASGYTFTNNWMHWVKQRPLQGLEWIGNIDPSDSETHYNQKFKDKATLTVDKSSTTAYIQLSSLTSEDSAVYYCARWRGGGRGAMDYWGQGTSVTVSS
VL: B1 VL with V19I, S22N, N26S, R27K, H55Q, R77N, S97T, G100R
B3: in assay [1], the Kd amounted to 0.982 nM, the koff was determined as 0.000362 s⁻¹ and the kon was determined as 369000 M⁻¹ s⁻¹.

B4: c51E2F11 (antibody, V domains shown)
VH: EVQLQQSGAELVKPGASVKLSCTASGFNIKDHYIHWMNQRTEQGLEWIGRIDPDDGETRYAPKFRGKATLTADTSSNTAYLQFSSLTSEDTAVYHCTRATTITRDWYFDVWGTGTTVTVSS
VL: DIVMTQSQKFMSTSVGDRVSITCKASQNVRTSVAWYQQKPGQSPKALIYLASNRHTGIPDRFTGSGSGTDFTLTIRNVQSEDLADYFCLQHWDYPLTFGAGTKLELK
B4: in [1], the Kd came out at 2.41 nM, the off-rate (koff) is 0.00103 s⁻¹ and the on-rate (kon) turned out to be 428000 M⁻¹ s⁻¹.

B5: c54G8G6 (antibody, V domains shown)
VH: QVQLQQPGADLVKPGASVKMSCKASGYTFTSYWIIWVKQRPGQGLEWIGDINPGRGSPNYNEKFKRKATLTVDTSSSTAYMQLSSLTSEDSAVYYCVRGGLRRFDHWGQGTLVTVSA
VL: ENVLTQSPAIMSASPGEKVTMTCRASSSVSSSYLHWYQQKSGASPKLWIYSTSTLASGVPARFSGSGSGTSYSLTISSVEAEDAATYYCQQYSGYPYTFGGGTKLEIK
In the case of B5, in assay [1], the Kd is 1.39 nM, the off-rate constant (koff) worked out at 0.000478 s⁻¹ and the on-rate constant (kon) came to 343000 M⁻¹ s⁻¹.

B6: 4D10B11 (antibody, V domains shown)
VH: QVQLQQSGPELVKPGASVKISCKASGYSFTSYYIHWVKQRPGQGLEWIGWIYPGSGNTKYNEKFKGKATLTADTSSSTADMQLSSLTSEDSAVYYCARRGDWYFDVWGTGTTVTVSS
VL: DIVMSQSPSSLVVSVGEKVTMNCKSSQSLLFSGNQKSSLAWYQQKPGQSPKLLIYWASTRESGVPDRFTGSGSGTDFTLIISTVKAEDLAVYSCQQYYSYPLTFGAGTKLELK
notes: Murine hybridoma antibody purified on protein G
For B6, the mean fluorescence intensity is 8450 in assay [2]; 12100 in [3]; 8900 in [4]; 13900 in [5]; 4850 in assay [6]; 10500 in [7]. Also, the mean fluorescence intensity came to 7190 in assay [8]; 8870 in assay [9]; 1710 in assay [10]; 2540 in [11]; 480 in [12]; 667 in assay [13]. For the same molecule, the mean fluorescence intensity in [14] amounted to 113; in assay [15], 218; in assay [23], 21.9; in assay [24], 75.5. The OD450 nm in assay [16] was found to be 0.18; in [17] it was 0.69; in [18], 2.13; in [19] it was 2.94; in assay [20], 3.03; in assay [21], 2.91. Moreover, the OD450 nm in assay [22] came to 2.91; in [25], 0.05. Besides, the “OD450 nm of CD47 bound to SIRPα” value came to 2.84 in assay [26]; 0.06 in [27]; 0.06 in assay [28]; 0.15 in assay [29]; 0.06 in [30]; 0.77 in [31]. Besides, the results for the “OD450 nm of CD47 bound to SIRPα” value in assay [32] and in assay [33] were 2.45 and 2.76, respectively.

B7: c4D10B11 (antibody, V domains shown)
VH: B6 VH
VL: B6 VL
As for B7, in assay [1], the Kd was 1.06 nM, the koff was found to be 0.000284 s⁻¹ and the kon turned out to be 268000 M⁻¹ s⁻¹.
